Measured values published in US20240124606A1.

T1: human CD73 (human) (UniProt P21589)
T1 sequence: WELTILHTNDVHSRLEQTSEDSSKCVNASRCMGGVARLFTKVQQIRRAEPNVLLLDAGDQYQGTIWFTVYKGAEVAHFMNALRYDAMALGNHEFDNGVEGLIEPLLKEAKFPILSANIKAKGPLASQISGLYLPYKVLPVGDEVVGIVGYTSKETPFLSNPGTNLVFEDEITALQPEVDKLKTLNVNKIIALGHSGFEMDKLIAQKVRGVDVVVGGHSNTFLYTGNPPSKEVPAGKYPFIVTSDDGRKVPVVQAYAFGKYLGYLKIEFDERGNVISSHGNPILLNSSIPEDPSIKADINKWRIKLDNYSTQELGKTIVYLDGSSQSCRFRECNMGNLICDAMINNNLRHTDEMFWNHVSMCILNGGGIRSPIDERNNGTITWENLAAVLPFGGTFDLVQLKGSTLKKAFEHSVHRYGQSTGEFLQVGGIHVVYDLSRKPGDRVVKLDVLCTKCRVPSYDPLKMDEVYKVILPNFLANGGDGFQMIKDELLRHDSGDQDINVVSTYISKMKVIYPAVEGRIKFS


Key:
mouse CD73 (mouse) = mouse CD73 (mouse) (UniProt Q61503); assay: flow cytometry, murine E0771 breast cancer cells, isotype control; PE against SSC-A
human CD73 (human) [1] = molecular target: T1, human CD73 (human); assay: flow cytometry, human PC3 prostate cancer cells, isotype control plot above the E7 plot; CD73-PE against SSC-A
human CD73 (human) [2] = molecular target: T1, human CD73 (human); assay: flow cytometry, human PC3 prostate cancer cells, isotype control plot above the 2C5 plot (its gate is drawn larger than in the other plots); CD73-PE against SSC-A
human CD73 (human) [3] = molecular target: T1, human CD73 (human); assay: flow cytometry, human PC3 prostate cancer cells, 10 ug/ml antibody, PE anti-mIgG secondary antibody; CD73-PE against SSC-A

Sequence of UniProt Q61503 (Q61503 29-551 limits assumed): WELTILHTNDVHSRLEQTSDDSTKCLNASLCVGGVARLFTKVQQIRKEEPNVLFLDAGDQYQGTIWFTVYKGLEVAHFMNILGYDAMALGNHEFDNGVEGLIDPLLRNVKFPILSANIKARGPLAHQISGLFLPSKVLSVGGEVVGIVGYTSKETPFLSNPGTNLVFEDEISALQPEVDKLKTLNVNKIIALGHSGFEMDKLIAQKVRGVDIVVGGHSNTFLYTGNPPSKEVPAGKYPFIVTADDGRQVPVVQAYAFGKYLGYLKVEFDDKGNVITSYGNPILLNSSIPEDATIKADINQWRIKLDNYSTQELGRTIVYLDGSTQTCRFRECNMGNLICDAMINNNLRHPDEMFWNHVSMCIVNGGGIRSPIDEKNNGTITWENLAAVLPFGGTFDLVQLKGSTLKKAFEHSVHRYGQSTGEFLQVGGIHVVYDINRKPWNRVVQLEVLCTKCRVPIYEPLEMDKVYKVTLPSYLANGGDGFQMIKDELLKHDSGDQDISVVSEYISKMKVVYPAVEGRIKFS

Molecule	percent of cells in the CD73 gate (mouse CD73 (mouse))	percent of cells in the CD73-PE gate (human CD73 (human) [1])	percent of cells in the CD73-PE gate (human CD73 (human) [2])	percent of cells in the CD73-PE gate (human CD73 (human) [3])
Isotype (antibody)	0.8	1.02	2.84	
2C5 (a commercially-available anti-CD73 mAb, Astrazeneca) (antibody, from another filing, V domains shown) VH: EVQLLESGGGLVQPGGSLRLSCAASGFTFSSYAMSWVRQAPGKGLEWVSAISGSGGSTYYADSVKRRFTISRDNSKNTLYLQMNSLRAEDTAVYYCARDKGYYWYMDVWGQGTMVTVSS VL: QSVLTQPPSVSVSPGQTASITCSGDKVGDKYASWYQQKPGQSPVLVIYEDTKRLSGIPERFSGSNSGNTATLTISGTQAMDEADYYCQAWDTSFWVFGGGTKLTVL				99.7
